In the experiment the target is human complement regulatory factor H (hfH) (human) (UniProt P08603). Put plainly: SPR. A general note: Surface plasmon resonance follows binding to a sensor surface in real time, without labels.

The term Kd denotes the concentration at which binding is half-saturated.

Chain of human complement regulatory factor H (hfH) (human) (P08603 19-1231): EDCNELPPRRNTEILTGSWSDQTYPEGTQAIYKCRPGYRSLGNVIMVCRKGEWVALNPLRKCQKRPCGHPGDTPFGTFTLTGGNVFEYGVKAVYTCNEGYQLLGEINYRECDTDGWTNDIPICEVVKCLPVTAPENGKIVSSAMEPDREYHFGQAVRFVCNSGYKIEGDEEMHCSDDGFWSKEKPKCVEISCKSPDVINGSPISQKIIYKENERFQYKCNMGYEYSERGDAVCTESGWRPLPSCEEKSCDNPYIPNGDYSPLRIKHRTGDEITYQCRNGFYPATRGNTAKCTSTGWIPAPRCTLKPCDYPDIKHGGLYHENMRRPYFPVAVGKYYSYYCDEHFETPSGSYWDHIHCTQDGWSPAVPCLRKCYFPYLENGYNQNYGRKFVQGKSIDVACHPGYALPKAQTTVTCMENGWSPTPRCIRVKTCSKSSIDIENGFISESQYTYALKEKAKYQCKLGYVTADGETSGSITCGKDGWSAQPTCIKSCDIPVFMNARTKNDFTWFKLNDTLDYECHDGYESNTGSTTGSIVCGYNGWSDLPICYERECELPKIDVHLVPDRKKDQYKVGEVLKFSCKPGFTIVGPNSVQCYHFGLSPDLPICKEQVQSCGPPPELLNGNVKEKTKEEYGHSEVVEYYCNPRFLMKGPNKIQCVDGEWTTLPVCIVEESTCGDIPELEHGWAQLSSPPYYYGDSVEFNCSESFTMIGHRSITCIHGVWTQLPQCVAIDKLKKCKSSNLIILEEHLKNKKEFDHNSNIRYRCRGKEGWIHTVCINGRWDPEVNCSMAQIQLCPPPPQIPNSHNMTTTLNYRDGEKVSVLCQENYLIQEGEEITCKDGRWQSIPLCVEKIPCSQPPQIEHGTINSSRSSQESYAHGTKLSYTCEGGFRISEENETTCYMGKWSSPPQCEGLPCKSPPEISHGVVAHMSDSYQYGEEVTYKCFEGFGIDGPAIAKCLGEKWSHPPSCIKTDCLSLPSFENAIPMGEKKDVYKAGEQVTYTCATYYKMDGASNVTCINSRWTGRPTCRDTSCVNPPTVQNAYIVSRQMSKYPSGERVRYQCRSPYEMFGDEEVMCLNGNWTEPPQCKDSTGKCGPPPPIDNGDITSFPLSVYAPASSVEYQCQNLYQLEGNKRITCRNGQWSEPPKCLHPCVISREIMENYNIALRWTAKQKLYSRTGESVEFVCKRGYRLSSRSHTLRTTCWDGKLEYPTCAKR

In turn, “factor H binding protein (fHbp) variant1-2,3.x from MenB clinical isolate NL096 (from UniProt E6MV22 20-274) (natural protein)” had a Kd of 30.4 nM.

These data come from article PMC9079162.
